From the nanobody polyreactivity screen of Harvey et al. (2022)

Assay: yeast display, Sf9 membrane polyspecificity reagent, FACS + sequencing; frameworks hold sequencing errors
In short: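 Using colony PCR, genes from sorted yeast display clones were amplified, then sequenced on MiSeq at 2 × 250 and filtered by CDR length. The clones had been stained with 10% biotinylated, detergent-solubilized Sf9 membrane reagent for 1 hour at 4 °C and sorted by FACS into low and high (top ~1%) gates on anti-HA and streptavidin fluorescence. Polyreactivity labels come from the gate of origin.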

QVQLEESGGGLVQAGGSLRLSCAASGSIFYTYAMGWYRQAPGTERELVAAISRSGGSTYYADSVKGRFTISRDNAKNTVYLQMNSLKPEDTSVYYCAARPPYRVGIVPLGRREYYWGQGTQVTVSS
polyreactivity (PSR sort gate): high polyreactivity

QVQLVESGGGLVQAGGSLRLSSAASGSTIGVNARGWYRQAPGKERELVAAISSSGSSTYADSVKGRFTISRDNAKNTVYLQMNSLKPEDTAVYYCNKEWYPYKHNYWGQGTQVTVSS
polyreactivity (PSR sort gate): low polyreactivity

QVQLVESGGGLVQAGGSLRLSCAASGRIFIEYAMGWYRQAPGKERELVATINSSGGRTYYADSVKGRFTISRDNAKNTVYLQMNSLKPEDTAVYYCAARGSYRGPYNVEYDSWGQGTQVTVSS
polyreactivity (PSR sort gate): low polyreactivity

QVQLVESGGGLVQAGGSLRLSCAASGFTFSTYAMGWYRQAPGKERELVAAISSGDSTYADSVKGRFTISRDNAKNTVYLQMNSLKPEDTAVYYCAAYVSVPYRNYYYWGQGTQVTVSS
polyreactivity (PSR sort gate): high polyreactivity

QVHLVESGGGLVQAGGSLRLSCAASGSTLYDNAMGWYRQAPGKERELVAAITRRGAGTYYADSVKGRFTISRDNAKNTVYLQMNSLKPEDTAVYYCNAGRPYFVRYYYWGHGTQVTVSS
polyreactivity (PSR sort gate): high polyreactivity

QVQLVESAGGLVQARGSLRLSCAASGRIFDVNAMGWYRQAPGKERELVAAISSGGNTKYADSVKGRFTISRDNAKNTVYLQMNSLKPEDTAVYYCNADGKAGGDSDYWGQGTQVTVSS
polyreactivity (PSR sort gate): low polyreactivity

QVQLVESGGGLVQAGGSLRLSCAASGRIFALYAMGWYRQAPGKDRELVAAITSSDGSTYYADSVKGRFTISRDIAKNSVYFQMKSLKPEDTAVYYSAAVWWRYYQDPYYYWGQGTQVTVSS
polyreactivity (PSR sort gate): low polyreactivity

QVQLVESGGGLVQAGGSLRLSCAASGRTMGYNTMGWYRQAPGKERELVARISYGGSTYYAESVKGRFTISRDNAKNTVYLQMNSLIPEDTAVYYCAAEARSYRYPYNYWGQGTQVTVSS
polyreactivity (PSR sort gate): high polyreactivity

QVQLVESGGGLVQAGASLRLSCAPSGRIFGPNTMGWSRQAPGKEREVVAAITRRGGSTYYADSVKGRFTISRDNAKNTVYLQMNSLKPEDTAVYYCAAVGQKRSLGFSWGQGTQVTVSS
polyreactivity (PSR sort gate): low polyreactivity

QVQLVESGGGLVQAGGSLRLSCAASGRTFWGITMGWYRQAPGKERELVASITYSGGRTYYADSVKGRFTISRDNAKNTVYLQMNSLKPEDTAVYYCAATLYRYRYFGYDYWGQGTQVTVSS
polyreactivity (PSR sort gate): high polyreactivity

QVQLVESGGGLVQAGGSLRLSCAASGSTFRRYAMGWYRQAPGKERELVAAITTNGGSTYYADSVKGRFTISRDNAKNTVYLQMNSLKPEDTAVYYCNARWPYRQRGYDYWGQGTQVTVSS
polyreactivity (PSR sort gate): high polyreactivity

QVQLVDSGGGLVQAGGSLRLRCADSGSIFRDNAMGWYRQAPGKERELVADINYRDGDTFYADSVKGRFTISRDNAKNTVYLLMNSLKPEDNAVYYCAAEWDYPWWRIVAVYGYEYWGQGTQVTVSS
polyreactivity (PSR sort gate): low polyreactivity

QVQLVESGGGLVQAGGSLRLSCAASGIIFGGYDMGWYRQAPGKERELVAGIRSGGSTYYADSVKGRFTISRDNAKNTVYLQMNSLKPEDTAVYYCAADSYTEVDYWGQGSQVTVSS
polyreactivity (PSR sort gate): low polyreactivity

QVQLQESRGGLVQAGGSLCLSCAASGTIFIDGDMGWYRQAPGKEREFVAAIKPGGSAYYADSVKGRLPLAAITHTVYLQMNSLKPEDTAVYYCAAKLFDVYGYYYWGQGTQVTLSS
polyreactivity (PSR sort gate): low polyreactivity

QVQLVESGGGLVQAGGSLRLSCAASGGIFKRYAMGWYRQAPGKERELVAAISGRGGGTYYADSVKGRFTISRDNATNTVYLQMTSLKPEDTAVYYCNARLSWSAFGYWGQGTQVTVSS
polyreactivity (PSR sort gate): high polyreactivity

QFQLVESGGGLVQAGGSLRLSCAASGLIFRHYVMGWYRQAPGKERELVAAITSRGGTTYYADSVKGRFTISRDNEKNTVYLQMNIMKPEDTAVYYCNAVDIDPTRYEYDYWGQVTQVTVSS
polyreactivity (PSR sort gate): high polyreactivity

QVQLVESGGGLVQAGGSLRLSCAASGSTFSSYAMGWYRQAPGKERELVAAISTSGGRTYYADSVKGRFTISRDNAKNTVYLQMNSLKPEDTAVYYCAKKGIGYVRYYYWGQGTQVTVSS
polyreactivity (PSR sort gate): high polyreactivity

QVQLVESGVGLVQARGSLRLSCASSGSIFLVYAMGWYRQAPGKESELVAAISRSGRTYADSVKGRFTISRDNAKNTVYLQMNSLKPVDTAVYYCAAVTKRRFEGDYWGQGTQVTVSS
polyreactivity (PSR sort gate): high polyreactivity

QVQLVESGGGLVQAGGSLRLSCAASGLIFWKYAMGWYRQAPGKEREFVAAITYGGGGTYYADSVKGRFTISRDNAKNTVYFQMNSLKPEDTAVYYWAKRRYYYKGRVSYRQYGYWGQGTQVTVSS
polyreactivity (PSR sort gate): high polyreactivity

QVQLVESGGGLVQAGGSLRLSCAASGIIFDGNAMGWYRQAPGKERELVASITSDSSTNYADSEKGRFTISRDNAKNTVYLQMNSLKPADTAVYYCAADHWIAPRRDYWGQGTQVTVSS
polyreactivity (PSR sort gate): low polyreactivity

QVQLVESGGCLVQAGGSLRLSCAASGRIFYSYAMGWYRQAPGKERELVATISSGGSTNYADSVKGRFTISRDHAKNTVYLQMNSLKPEDTAVYFCAAADRLYWRGVIYRQYDYWGLGTQVTVSS
polyreactivity (PSR sort gate): high polyreactivity

QVQLVESGGGLVQAGGSLRLSCAASGFIFYAYAMGWYRQAPGKERELVAAIDSGGNTYADSVKGRFTISRDNAKNTVYLQMNSLKPEDTAVYYCAVDGGEFSSYGYWGQGTQVTVSS
polyreactivity (PSR sort gate): low polyreactivity

QVQLVESGGGLVQAGGSLRLSCAASGYTFSHYPMGWYRQAPGKERELVAGITWSGGSTYYADSVKGRFTISRDNAKNTVYLQMNSLKPEDTSVYYCAGKYYWYYSYSGIPLFDYWGQGTQVTVSS
polyreactivity (PSR sort gate): low polyreactivity

QVQLVESGGGLVQAGGSLRLSCAASGITFSYNAMGWYRQAPGKERELVAAISDIGGSTYYADSVKGRFTISRDNAKNTVYLQMNSLKPEDTAVYYCAADEYYQDESDYWGQGTQVTVSS
polyreactivity (PSR sort gate): low polyreactivity

QVQLVESGGGLVQAGGSLRLSCAASGRTFEHYAMGWYRQAPGKERELVAAINSSDGGTYYADSVKGRITISRDNPKNTVYLQMNSLKPEDTAVYYCAAAEFGSVPGYEMDYWGQGTQVTVSS
polyreactivity (PSR sort gate): low polyreactivity

QVQLVESGGGLVQAGGSLRLSCAASGRIFTQYTMGCYRQAPGKERELVAAINYSGGRTNYADSVKGRFTISRDNAKNTVYLQMNSLKPEDTAVYYCAAGYRRATYGYWGQGTQVTVSS
polyreactivity (PSR sort gate): high polyreactivity

QLQIVESGGGLVQAGGSLRISCAASVFTFCKYAMGWYRPAPGKERELVAAISVSGGRTYSADSVKGRFTISRDNAKNTVYLQMNSLKPEDTEVYYCNATQWRPYVGGEYWGQGTQVTVSS
polyreactivity (PSR sort gate): high polyreactivity

QVQLVESGGGLVQAGGSLRLSCAACVRTFSGYAMGWYRPAPGKERELVAAIRWSGGSTYYADSVKGRFTISRDNAKNTVYLQMNSLKPEDTAVYYCATRDYYYRYGYWGQGTQVTVSS
polyreactivity (PSR sort gate): high polyreactivity

QVQLVESGGGLVQAGGSLRLSCAASGFIFNLYAMGWYRQAPGKERELVATITNRGGITHYADSVKGRFTISRDNAKNTVYLQMNSLKPEDSAVYYCAVKVYRRSGGYEYWGQGTQVTVSS
polyreactivity (PSR sort gate): low polyreactivity

EEELVESGGGLVQAGCSLRLSCAATGSTIIWNAMGWYIQAPGKERELVAAITRSGGRTYYADSVKGRFTISRDNAKNTVYLLMNSLIPEDTAVYYCAAVIWGYYYGGKYVYYYPYGYWGQGTQVTVSS
polyreactivity (PSR sort gate): high polyreactivity

QVQLLESGGGLVHSGGSLRLSCASSGRIFPSNTMGSYRPAPGKERELVADISFGGGSTSYADSVKGRFTISRDNAKNTVYLQMNRLKPEDTAVYYCNADRDDDYDYWGQGTQVTLSS
polyreactivity (PSR sort gate): low polyreactivity

QVQLVESGGGLVQAGGSLRLSCAASGNIFRKNAMGWYRQAPGKERELVAAISRRGGNTYYADSVKGRFTISRDNAKNTVYLQMNSLKPEDTAVYYCAADWSPTAASDYWGQGTQVTVSS
polyreactivity (PSR sort gate): high polyreactivity

QVKLVESGGGLVQAGGSLRLSCAASGFTIQRYAMGWYRQAPGKERELVAAITSGGSTYYADSVKGRFTISRDNAKNTVYLQMNSLKPEDTAVYYCATRAVWSSWGRRYDSWGQGTQVTVSS
polyreactivity (PSR sort gate): high polyreactivity

QVQLVESGGGLVQAGGSLRLSCAASGMTFAENAMGWYREAPGKERELVAANSASGGSTYYADSVKGRFTISRDNAKNTVYLQMNSLKPEDTAVFYCATRVAFLWPRRDYDYWGQGTQVTVSS
polyreactivity (PSR sort gate): low polyreactivity

QVQLVESGGGLVQAGGSLRLSCAASGRIFVRNAMGWYRQAPGKERELVAAITSGAGSTNYADSVKGRFTISRDNAKNTVYLQMNSLKPEDTAVYYCAADYETGAVSILDDYWGQGTQVTVSS
polyreactivity (PSR sort gate): low polyreactivity

QVQLVESGGGLVQAGGSLRLSCAASGRIFNTYAMGWFRQAPGKERELVAAITRSAGRTYYADSVKGRFTISRDTAKNTVYLQMNSLKPEDTAVYYCAAQYNYGQRSGPYGYWGQGTQVTVSS
polyreactivity (PSR sort gate): low polyreactivity

QVQLVESGGGLVQAGGSLRLSCAASGSIFYINAMGWYRQAPGKEREFVARISWRSGSTSYADSVKGRFTISRDNAKNTVYLQMNSLKPEDTAVYYCNAGDFANDNGGRRDQFTWEDEYWGQGTQVTVSS
polyreactivity (PSR sort gate): low polyreactivity

QVQLVESGGGLVQAGGSLRLSCAASGSTFVWYAMVWYRQAPGKEREFVATISWSDGSTYYADSVKGRFTISRDNAKNTVYLLMNSLKPEVTAVYYCASDVDRFFSYKYDYWGQGTQVTVSS
polyreactivity (PSR sort gate): low polyreactivity

QVQLVESGGGLVQAGGSLRLSCAASGFIFPYYAMGLYRQAPGKEREMVAAITFSATRTYYADSVKGRFTISRDNAKNTVYLQMNSLKPEDTADYYCKARGGVYGSYFEFNYWGQGSQVTVSS
polyreactivity (PSR sort gate): low polyreactivity

QVQLVESGGGLVQAGGSLRLSCAASGRILDYYAMGWYRQAPGKERELVAAIRRRGVITYADSVKGRFTISRDNAKNTVYLQMNSLKPEDTAVYYCAAGGYEYGYWGQGTQVTVSS
polyreactivity (PSR sort gate): low polyreactivity

QVQLVESGGGLVQAGGSLRLSCAASGLTFNLYAMGWYRQAPGKEWELVAAITRNGGSTYYADSVKGPFTISRDNAKNSVYLELNSLKPEDTAVYYCATGWLGTPYGYRRFGYWGQGTQVTVSS
polyreactivity (PSR sort gate): high polyreactivity

QVQLVESGGGLVQAGGSLRLSCAASGLTFRRYAMGWYRQAPGKDRELVAAISRGDNTNYADSVKGRFTISRDNAKNTVYLQMTSLKPEDTAVYFCAPRLWIRGNFNYWGQATQVTVSS
polyreactivity (PSR sort gate): high polyreactivity

QVQLVESGGGLVQAGGSLRLSCAASGRTFDHYAMGWYRQAPGKERELVAAITSGGSTYYADSVKGRFTISRDNAKNTVYLQRNSLKPEDTAVYYCNKDSSFWGYYIAQVNERDYWGQGTQVTVSS
polyreactivity (PSR sort gate): low polyreactivity
